According to patent US20200377579A1 (Biogen, published 2020):

Key:
[1] = target: T1, aggregated α-synuclein (human, UniProt P37840 1-140); test: in vitro binding, method not stated; estimated from binding constants
[2] = target: T1, aggregated α-synuclein; test: in vitro binding, method not stated; same EC50 in mass units

B1: BIIB054 (antibody, human IgG1, lambda, V domains shown)
VH: EVQLVESGGGLVEPGGSLRLSCAVSGFDFEKAWMSWVRQAPGQGLQWVARIKSTADGGTTSYAAPVEGRFIISRDDSRNMLYLQMNSLKTEDTAVYYCTSAHWGQGTLVTVSS
VL: SYELTQPPSVSVSPGQTARITCSGEALPMQFAHWYQQRPGKAPVIVVYKDSERPSGVPERFSGSSSGTTATLTITGVQAEDEADYYCQSPDSTNTYEVFGGGTKLTVLS
notes: Fully human IgG1/lambda monoclonal antibody; also called anti-α-synuclein antibody
- EC50 [1]: ~0.25 nM
- EC50 [2]: ~0.0375 µg/mL
